Measured values from US20170253670A1 (Hoffmann-La Roche, published 2017).
Where a chain is given by its changes, count along the chain named. Values joined by “and” are separate entries in the source; they are usually repeats but may differ in a detail not shown here. Equal values may be shown once.

Assays:
[1] = molecular target: T1, human FolR1 on cells (HeLa, SKOV3, HT-29, transfected HEK) (human, UniProt P15328 25-234); assay: flow cytometry on HeLa cells, fluorescently labeled anti-human secondary antibody
T1 construct: whole, on cells
T1 sequence (P15328 25-234): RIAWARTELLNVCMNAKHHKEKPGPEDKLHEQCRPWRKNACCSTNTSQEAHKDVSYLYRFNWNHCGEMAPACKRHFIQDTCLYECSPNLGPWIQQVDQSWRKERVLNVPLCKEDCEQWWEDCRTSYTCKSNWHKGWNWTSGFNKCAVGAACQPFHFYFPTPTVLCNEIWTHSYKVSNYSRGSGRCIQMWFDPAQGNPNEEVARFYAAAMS
Procedure: FIGS. 2A-C depict graphs summarizing Binding of FoLR1 IgG binders to HeLa cells. Binding of newly generated FolR1 binders to FolR1 expressed on HeLa cells were determined by flow cytometry. Bound antibodies were detected with a fluorescently labeled anti-human secondary antibody.
The identified binders were converted into a human IgG1 format and binding to FolR1 high expressing HeLa cells was addressed. […] In a next step the selected clones were tested for specificity to human FolR1 by excluding binding to the closely related human FolR2. HEK cells were transiently transfected with either human FolR1 or human FolR2 to address specificity. […] In parallel cross-reactivity of the FolR1 clones to cyno FolR1 was addressed by performing binding studies to HEK cells transiently transfected with cyno FolR1. […] These FolR1 TCBs were then used to compare induction of internalization after binding to FolR1 on HeLa cells.

[2] = molecular target: T2, MUC1 SEA-avi-His, biotinylated (human, biotin on avi tag); assay: SPR (ProteOn XPR36), biotinylated MUC1 on NLC chip, Fab as analyte, 1:1 Langmuir fit
T2 construct: E. coli derived; also called MUC1 antigen; SEA domain of human MUC1
T2 chain: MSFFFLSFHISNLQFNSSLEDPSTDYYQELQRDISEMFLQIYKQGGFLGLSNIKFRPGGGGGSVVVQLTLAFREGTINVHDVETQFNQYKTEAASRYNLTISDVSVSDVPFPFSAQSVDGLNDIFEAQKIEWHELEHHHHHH
Procedure: Immobilization of recombinant antigens (ligand): Antigens were diluted with PBST (10 mM phosphate, 150 mM sodium chloride pH 7.4, 0.005% Tween 20) to 10 μg/ml, then injected at 30 μl/minute at varying contact times, to achieve immobilization levels of about 200 response units (RU) in vertical orientation. […] Buffer (PBST) was injected along the sixth channel to provide an “in-line” blank for referencing. Association rate constants (kₒₙ) and dissociation rate constants (koff) were calculated using a simple one-to-one Langmuir binding model in ProteOn Manager v3.1 software by simultaneously fitting the association and dissociation sensorgrams. The equilibrium dissociation constant (KD) was calculated as the ratio koff/kₒₙ. Regeneration was performed in horizontal orientation using 10 mM Glycine, pH 1.5 at a flow rate of 100 ul/min for a contact time of 30 s.

[3] = molecular target: T3, recombinant murine BCMA Fc(kih) (murine, UniProt O88472 2-49, biotinylated at the avi-tag of the Fc knob chain (not in the letters)); assay: SPR Biacore, binder captured via anti-Fab, BCMA-Fc analyte
T3 construct: also called muBCMA Fc(kih); not shown: human IgG1 hinge-Fc(knob)-avi and the unfused Fc(hole) chain
T3 chain: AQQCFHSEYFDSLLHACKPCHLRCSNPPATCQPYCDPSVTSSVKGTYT

[4] = molecular target: T4, recombinant human BCMA Fc(kih) (human, UniProt Q02223 4-53, biotin on avi-tag where coupled to SA chip ; biotin on the avi-tag of the Fc-knob chain where coupled to the SA chip (tag not in the letters)); assay: as above
T4 construct: also called huBCMA Fc(kih); huBCMA; not shown: human IgG1 hinge-Fc(knob)-avi fused to the ECD, and the unfused Fc(hole) chain
T4 chain: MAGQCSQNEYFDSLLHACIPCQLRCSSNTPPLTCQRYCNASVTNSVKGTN

[5] = molecular target: T5, human BCMA on myeloma cells (H929, U266) (human, UniProt Q02223 1-184); assay: cell-based or functional assay
T5 sequence (looked up): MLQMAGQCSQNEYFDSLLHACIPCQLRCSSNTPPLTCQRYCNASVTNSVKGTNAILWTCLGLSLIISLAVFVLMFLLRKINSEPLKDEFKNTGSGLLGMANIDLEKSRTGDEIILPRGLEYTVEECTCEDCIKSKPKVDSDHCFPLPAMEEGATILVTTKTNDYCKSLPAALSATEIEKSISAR

[6] = molecular target: T4, recombinant human BCMA Fc(kih); assay: SPR Biacore, 1:1 Langmuir fit, as in Example 41
Procedure: The affinity of the interaction between anti-BCMA antibodies or BCMA-TCB CLC antibodies and recombinant human BCMA Fc(kih) was also determined. Anti-human Fab antibody (GE Healthcare) was directly coupled on a CM5 chip at pH 5.0 using the standard amine coupling kit (Biacore, Freiburg/Germany). The immobilization level was about 6500 RU. […] The dissociation was monitored for 120 or 400 seconds. Bulk refractive index differences were corrected for by subtracting the response obtained on reference flow cell. […] Kinetic constants were derived using the Biacore T200 Evaluation Software (v 1.0, Biacore AB, Uppsala/Sweden), to fit rate equations for 1:1 Langmuir binding by numerical integration (Table 41).
The anti-BCMA antibody comprising two heavy chains of 83A10 and two common light chains were produced using the general techniques for generation of bivalent IgG antibodies as described in the Material and general methods section.

[7] = molecular target: T1, human FolR1 on cells (HeLa, SKOV3, …); assay: cell-based or functional assay

B1: 19E5 IgG (antibody, V domains shown)
VH: QVQLVQSGAEVKKPGASVKVSCKASGYTFTSYYMHWVRQAPGQGLEWMGIINPSGGSTSYAQKFQGRVTMTRDTSTSTVYMELSSLRSEDTAVYYCARGEWRRYTSFDYWGQGTLVTVSS
VL: QAVVTQEPSLTVSPGGTVTLTCGSSTGAVTTSNYANWVQEKPGQAFRGLIGGTNKRAPGTPARFSGSLLGGKAALTLSGAQPEDEAEYYCALWYSNLWVFGGGTKLTVL
notes: human IgG1
EC50 (read off the curve) [1]: ~2 µg/mL

B2: 19A4 IgG (antibody, V domains shown)
VH: B1 VH with E100G, R102I, Y104W, T105E, S106H
VL: B1 VL
notes: human IgG1
EC50 (read off the curve) [1]: ~3 µg/mL

B3: 58D6 Fab (Fab, V domains shown)
VH: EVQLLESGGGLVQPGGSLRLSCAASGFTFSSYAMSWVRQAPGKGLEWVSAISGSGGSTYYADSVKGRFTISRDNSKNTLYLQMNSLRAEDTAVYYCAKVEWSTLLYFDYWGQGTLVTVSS
VL: B1 VL
notes: bacterial Fab
Kd [2]: 23.5 nM | koff [2]: 0.000798 s⁻¹ | kon [2]: 34000 M⁻¹ s⁻¹

B4: 106D2 Fab (Fab, V domains shown)
VH: EVQLLESGGGLVQPGGSLRLSCAASGFTFRVYAMSWVRQAPGKGLEWVSGISETGSYTYYADSVKGRFTISRDNSKNTLYLQMNSLRAEDTAVYYCARYPYGFDYWGQGTLVTVSS
VL: B1 VL
notes: bacterial Fab
Kd [2]: 30 nM | koff [2]: 0.000295 s⁻¹ | kon [2]: 9800 M⁻¹ s⁻¹

B5: 110A5 Fab (Fab, V domains shown)
VH: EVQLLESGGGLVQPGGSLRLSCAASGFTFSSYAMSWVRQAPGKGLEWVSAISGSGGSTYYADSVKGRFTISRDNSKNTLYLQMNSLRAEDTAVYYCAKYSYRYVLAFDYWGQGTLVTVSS
VL: B1 VL
notes: bacterial Fab
Kd [2]: 134 nM | koff [2]: 0.00164 s⁻¹ | kon [2]: 12200 M⁻¹ s⁻¹

B6: 20G6 IgG (antibody, V domains shown)
VH: B1 VH with R102I, T105Y, S106H
VL: B1 VL
notes: human IgG1
binding result [1]: binds

B7: pSCHLI333-TCB CLC (bispecific antibody)
heavy 1: not shown
heavy 2: QVQLVQSGAEVKKPGASVKVSCKASGYMFSSFGMSWVRQAPGQGLEWMGWIYPVGQGTWYAQKFQGRVTMTRDTSTSTVYMELSSLRSEDTAVYYCARVSYPPSHFDYWGQGTLVTVSSASTKGPSVFPLAPSSKSTSGGTAALGCLVKDYFPEPVTVSWNSGALTSGVHTFPAVLQSSGLYSLSSVVTVPSSSLGTQTYICNVNHKPSNTKVDKKVEPKSCDKTHTCPPCPAPEAAGGPSVFLFPPKPKDTLMISRTPEVTCVVVDVSHEDPEVKFNWYVDGVEVHNAKTKPREEQYNSTYRVVSVLTVLHQDWLNGKEYKCKVSNKALGAPIEKTISKAKGQPREPQVCTLPPSRDELTKNQVSLSCAVKGFYPSDIAVEWESNGQPENNYKTTPPVLDSDGSFFLVSKLTVDKSRWQQGNVFSCSVMHEALHNHYTQKSLSLSPGK
light: QAVVTQEPSLTVSPGGTVTLTCGSSTGAVTTSNYANWVQEKPGQAFRGLIGGTNKRAPGTPARFSGSLLGGKAALTLSGAQPEDEAEYYCALWYSNLWVFGGGTKLTVLGQPKAAPSVTLFPPSSEELQANKATLVCLISDFYPGAVTVAWKADSSPVKAGVETTTPSKQSNNKYAASSYLSLTPEQWKSHRSYSCQVTHEGSTVEKTVAPTECS
notes: also called pSCHLI333 BCMAxCD3 TCB
Kd [3]: 7190 nM | Kd [4]: 164 nM | EC50 redirected T-cell killing, H929 [5]: 980 pM and 0.19 µg/ml

B8: pSCHLI373-TCB CLC (bispecific antibody)
heavy 1: not shown
heavy 2: EVQLVESGGGLVKPGGSLRLSCAASGFSFSNSWMNWVRQAPGKGLEWVGTIRQKTYGGTTDYAAPVKGRFTISRDDSKNTLYLQMNSLKTEDTAVYYCTTGGLFGYWDYWGQGTLVTVSSASTKGPSVFPLAPSSKSTSGGTAALGCLVKDYFPEPVTVSWNSGALTSGVHTFPAVLQSSGLYSLSSVVTVPSSSLGTQTYICNVNHKPSNTKVDKKVEPKSCDKTHTCPPCPAPEAAGGPSVFLFPPKPKDTLMISRTPEVTCVVVDVSHEDPEVKFNWYVDGVEVHNAKTKPREEQYNSTYRVVSVLTVLHQDWLNGKEYKCKVSNKALGAPIEKTISKAKGQPREPQVCTLPPSRDELTKNQVSLSCAVKGFYPSDIAVEWESNGQPENNYKTTPPVLDSDGSFFLVSKLTVDKSRWQQGNVFSCSVMHEALHNHYTQKSLSLSPGK
light: B7 light
EC50 redirected T-cell killing, H929 [5]: 1590 pM and 0.31 µg/ml

B9: Mov19 IgG (antibody, V domains shown)
VH: QVQLQQSGAELVKPGASVKISCKASGYSFTGYFMNWVKQSHGKSLEWIGRIHPYDGDTFYNQNFKDKATLTVDKSSNTAHMELLSLTSEDFAVYYCTRYDGSRAMDYWGQGTTVTVSS
VL: DIELTQSPASLAVSLGQRAIISCKASQSVSFAGTSLMHWYHQKPGQQPKLLIYRASNLEAGVPTRFSGSGSKTDFTLNIHPVEEEDAATYYCQQSREYPYTFGGGTKLEIK
EC50 (read off the curve) [1]: ~1 µg/mL

B10: 83A10-CLC anti-BCMA IgG (antibody, V domains shown)
VH: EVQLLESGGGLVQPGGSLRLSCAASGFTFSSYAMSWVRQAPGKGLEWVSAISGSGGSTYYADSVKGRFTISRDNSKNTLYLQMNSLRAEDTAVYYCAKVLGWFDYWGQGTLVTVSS
VL: QAVVTQEPSLTVSPGGTVTLTCGSSTGAVTTSNYANWVQEKPGQAFRGLIGGTNKRAPGTPARFSGSLLGGKAALTLSGAQPEDEAEYYCALWYSNLWVFGGGTKLTVLG
notes: two heavy chains of 83A10 and two common light chains
Kd [6]: 24.3 nM | koff [6]: 0.00213 s⁻¹ | kon [6]: 87800 M⁻¹ s⁻¹

B11: Mov19 FolR1 TCB 2+1 inverted (bispecific antibody)
chain 1: not shown
chain 2: QVQLQQSGAELVKPGASVKISCKASGYSFTGYFMNWVKQSHGKSLEWIGRIHPYDGDTFYNQNFKDKATLTVDKSSNTAHMELLSLTSEDFAVYYCTRYDGSRAMDYWGQGTTVTVSSASTKGPSVFPLAPSSKSTSGGTAALGCLVKDYFPEPVTVSWNSGALTSGVHTFPAVLQSSGLYSLSSVVTVPSSSLGTQTYICNVNHKPSNTKVDKKVEPKSCDKTHTCPPCPAPEAAGGPSVFLFPPKPKDTLMISRTPEVTCVVVDVSHEDPEVKFNWYVDGVEVHNAKTKPREEQYNSTYRVVSVLTVLHQDWLNGKEYKCKVSNKALGAPIEKTISKAKGQPREPQVCTLPPSRDELTKNQVSLSCAVKGFYPSDIAVEWESNGQPENNYKTTPPVLDSDGSFFLVSKLTVDKSRWQQGNVFSCSVMHEALHNHYTQKSLSLSPGK
chain 3: DIELTQSPASLAVSLGQRAIISCKASQSVSFAGTSLMHWYHQKPGQQPKLLIYRASNLEAGVPTRFSGSGSKTDFTLNIHPVEEEDAATYYCQQSREYPYTFGGGTKLEIKRTVAAPSVFIFPPSDEQLKSGTASVVCLLNNFYPREAKVQWKVDNALQSGNSQESVTEQDSKDSTYSLSSTLTLSKADYEKHKVYACEVTHQGLSSPVTKSFNRGEC
EC50 killing 24 h, SKov-3 [7]: 0.00075 nM | EC50 killing 48 h, SKov-3 [7]: 0.05 pM
